Assay results reported in US20200048331A1 (CANIMGUIDE THERAPEUTICS, published 2020).
Where no end group is shown, it is not given here. The star is where a group is joined. Cam = NC(=O)C*

B1: synthesized albumin peptide 2605 NEETFLKKYLYE (peptide)
peptide: NEETFLKKYLYE
notes: Synthetic (CSBio); also called E5K peptide 2605
B2: synthesized albumin peptide 2606 KLDELRDEGKAS (peptide)
peptide: KLDELRDEGKAS
notes: Synthetic (CSBio); also called E5K peptide 2606

Assays:
[1] = biological target: artificial cell surface (ACS): biotinylated cell surface proteins from human mononuclear blood cells coupled to streptavidin-sepharose; experiment: ACS affinity column adsorption of tryptic dHSA peptides, MALDI-TOF ms
[2] = biological target: artificial cell surface (ACS): biotinylated cell surface proteins from human mononuclear blood cells coupled to streptavidin-sepharose; experiment: ACS affinity column adsorption of ASP-N dHSA peptides (3200-9000 Da), MALDI-TOF ms
[3] = biological target: artificial cell surface (ACS): biotinylated cell surface proteins from human mononuclear blood cells coupled to streptavidin-sepharose; experiment: ACS affinity column adsorption of tryptic dHSA peptides, MALDI-TOF ms; second of two lines for this peptide
[4] = biological target: artificial cell surface (ACS): biotinylated cell surface proteins from human mononuclear blood cells coupled to streptavidin-sepharose; experiment: ACS affinity column adsorption of tryptic dHSA peptides, MALDI-TOF ms; first of two lines for this peptide
[5] = biological target: artificial cell surface (ACS): biotinylated cell surface proteins from human mononuclear blood cells coupled to streptavidin-sepharose; experiment: ACS affinity column adsorption of ASP-N dHSA peptides (700-3600 Da), MALDI-TOF ms
[6] = biological target: T1, LFA-1 (CD11a) on immune cells (human, UniProt P20701 26-1170; P05107 23-769); experiment: effect of peptide pre-incubation on HI111 staining of LFA-1 on PBMC cytospins
T1 construct: whole, on cells; On acetone-fixed cytospin preparations of human PBMC or THP-1 cells; also called β2-integrin

[7] = biological target: T1, LFA-1 (CD11a) on immune cells; experiment: effect of peptide pre-incubation on HI111 staining of LFA-1 on PBMC and THP-1 cytospins
[8] = biological target: T1, LFA-1 (CD11a) on immune cells; experiment: inferred from modulation of HI111 staining of LFA-1 on mononuclear blood cells

T1 sequence (P20701 26-1170, chain 1 of 2): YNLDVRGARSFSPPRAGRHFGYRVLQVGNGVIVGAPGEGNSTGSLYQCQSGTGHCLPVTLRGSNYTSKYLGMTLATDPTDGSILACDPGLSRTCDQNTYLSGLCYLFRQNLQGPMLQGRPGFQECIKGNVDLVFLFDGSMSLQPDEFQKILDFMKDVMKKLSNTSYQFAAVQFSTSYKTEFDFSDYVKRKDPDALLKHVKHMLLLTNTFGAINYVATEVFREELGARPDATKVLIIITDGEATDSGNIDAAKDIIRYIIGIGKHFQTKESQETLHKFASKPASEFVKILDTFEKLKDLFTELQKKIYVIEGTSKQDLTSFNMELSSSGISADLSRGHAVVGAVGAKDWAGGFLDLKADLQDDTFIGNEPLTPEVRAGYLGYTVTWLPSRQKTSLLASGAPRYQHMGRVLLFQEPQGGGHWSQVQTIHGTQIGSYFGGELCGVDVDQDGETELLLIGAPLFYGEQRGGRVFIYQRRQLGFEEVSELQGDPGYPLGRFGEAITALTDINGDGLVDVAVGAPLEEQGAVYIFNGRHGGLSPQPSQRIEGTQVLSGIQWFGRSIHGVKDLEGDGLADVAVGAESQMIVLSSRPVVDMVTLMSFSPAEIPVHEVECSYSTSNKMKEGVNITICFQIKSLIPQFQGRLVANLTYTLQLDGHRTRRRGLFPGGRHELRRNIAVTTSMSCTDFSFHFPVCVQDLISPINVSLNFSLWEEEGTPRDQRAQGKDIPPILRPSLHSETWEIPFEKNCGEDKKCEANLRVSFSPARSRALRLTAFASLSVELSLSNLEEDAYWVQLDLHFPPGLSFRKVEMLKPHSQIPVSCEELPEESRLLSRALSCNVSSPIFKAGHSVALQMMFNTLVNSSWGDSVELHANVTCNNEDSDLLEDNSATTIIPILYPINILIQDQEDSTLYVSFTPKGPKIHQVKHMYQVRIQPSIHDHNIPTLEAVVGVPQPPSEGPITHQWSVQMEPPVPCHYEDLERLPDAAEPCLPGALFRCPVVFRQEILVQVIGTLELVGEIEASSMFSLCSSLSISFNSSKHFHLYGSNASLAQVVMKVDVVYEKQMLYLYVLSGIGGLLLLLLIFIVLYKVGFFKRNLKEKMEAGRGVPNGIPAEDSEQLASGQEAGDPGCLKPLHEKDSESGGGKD
T1 sequence (P05107 23-769, chain 2 of 2): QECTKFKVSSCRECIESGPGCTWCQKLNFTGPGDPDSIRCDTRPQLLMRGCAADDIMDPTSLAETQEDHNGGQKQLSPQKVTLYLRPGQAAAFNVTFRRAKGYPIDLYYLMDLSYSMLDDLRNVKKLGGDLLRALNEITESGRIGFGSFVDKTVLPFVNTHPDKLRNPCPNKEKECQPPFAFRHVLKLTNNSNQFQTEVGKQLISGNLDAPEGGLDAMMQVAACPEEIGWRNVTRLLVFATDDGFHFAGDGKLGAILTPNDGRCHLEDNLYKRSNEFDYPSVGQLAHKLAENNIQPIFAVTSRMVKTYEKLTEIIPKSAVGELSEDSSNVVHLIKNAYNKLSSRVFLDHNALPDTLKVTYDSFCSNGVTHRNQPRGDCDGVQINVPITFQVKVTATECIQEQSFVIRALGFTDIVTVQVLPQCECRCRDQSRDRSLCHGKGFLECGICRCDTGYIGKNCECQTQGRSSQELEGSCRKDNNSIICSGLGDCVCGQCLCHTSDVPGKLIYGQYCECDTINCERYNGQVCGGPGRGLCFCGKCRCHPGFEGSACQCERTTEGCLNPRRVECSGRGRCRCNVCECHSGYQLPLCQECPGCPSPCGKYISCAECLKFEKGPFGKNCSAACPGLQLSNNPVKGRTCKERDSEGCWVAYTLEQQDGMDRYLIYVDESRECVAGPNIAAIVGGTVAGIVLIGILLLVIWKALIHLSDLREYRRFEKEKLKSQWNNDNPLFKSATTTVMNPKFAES

Row | Per cent adsorbed (per cent adsorbed, printed as fraction) [1] | further results | Molecule
1 | 0.59 |  | HSA tryptic peptide residues 439-452 …
2 | 0.64 |  | HSA tryptic peptide residues 438-452 …
3 |  | Per cent adsorbed (per cent adsorbed, printed as fraction) [2]: 1 | HSA ASP-N peptide residues 96-130 …
4 | 0.71 |  | KYLYEIAR [HSA tryptic peptide residues 161-168 KYLYEIAR]
5 | 0.6 |  | KVFDEFKPLVEEPQNLIKQ [HSA tryptic peptide residues 397-413 …]
6 | 0.42 |  | RPC(Cam)FSALEVDETYVPK [HSA tryptic peptide residues 509-524 …]
7 | 0.41 |  | FQNALLVR [HSA tryptic peptide residues 427-434 FQNALLVR]
8 | 0.36 |  | SLHTLFGDK [HSA tryptic peptide residues 089-097 …]
9 | 0.36 |  | LKEC(Cam)C(Cam)EKPLLEK [HSA tryptic peptide residues 299-310 …]
10 | 0.35 |  | LCTVATLR (Cys alkylated with iodoacetamide (from dHSA)) [HSA tryptic peptide residues 098-105 LCTVATLR]
11 | 0.34 |  | YLYEIAR [HSA tryptic peptide residues 162-168 YLYEIAR]
12 | 0.32 |  | C(Cam)C(Cam)AAADPHEC(Cam)YAK [HSA tryptic peptide residues 384-396 …]
13 | 0.29 |  | AAFTEC(Cam)C(Cam)QAADK [HSA tryptic peptide residues 187-198 …]
14 | 0.26 |  | C(Cam)C(Cam)TESLVNR [HSA tryptic peptide residues 500-508 …]
15 |  | Per cent adsorbed (per cent adsorbed, printed as fraction) [3]: 0.18; Per cent adsorbed (per cent adsorbed, printed as fraction) [4]: 0.26 | QEPERNEC(Cam)FLQHK [HSA tryptic peptide residues 118-130 …]
16 | 0.23 |  | AVMDDFAAFVEK [HSA tryptic peptide residues 570-581 …]
17 | 0.22 |  | NECFLQHK (Cys alkylated with iodoacetamide (from dHSA)) [HSA tryptic peptide residues 123-130 NECFLQHK]
18 | 0.2 |  | QNC(Cam)ELFEQLGEYK [HSA tryptic peptide residues 414-426 …]
19 | 0.13 |  | VHTEC(Cam)C(Cam)HGDLLEC(Cam)ADDR [HSA tryptic peptide residues 265-281 …]
20 | 0.08 |  | FKDLGEENFK [HSA tryptic peptide residues 35-44 …]
21 | 0.03 |  | YIC(Cam)ENQDSISSK [HSA tryptic peptide residues 287-298 …]

Row | Per cent adsorbed (per cent adsorbed, printed as fraction) [1] | further results | Molecule
22 | 0.02 |  | LDELRDEGK [HSA tryptic peptide residues 206-214 …]
23 | 0.01 |  | DDNPNLPR [HSA tryptic peptide residues 131-138 DDNPNLPR]
24 | -0.02 |  | LVNEVTEFAK [HSA tryptic peptide residues 066-075 …]
25 | -0.08 |  | ETYGEMADC(Cam)C(Cam)AK [HSA tryptic peptide residues 106-117 …]
26 | -0.37 |  | YKAAFTEC(Cam)C(Cam)QAADK [HSA tryptic peptide residues 185-198 …]
27 |  | Per cent adsorbed (per cent adsorbed, printed as fraction) [5]: 1 | DHVKLVNEVTEFAKTC(Cam)VA [HSA ASP-N peptide residues 62-79 …]
28 |  | Per cent adsorbed (per cent adsorbed, printed as fraction) [5]: 1 | DDKETC(Cam)FAEEGKKLVAASQAALGL [HSA ASP-N peptide residues 586-609 …]
29 |  | Per cent adsorbed (per cent adsorbed, printed as fraction) [5]: 0.87 | DRVTKC(Cam)C(Cam)TESLVNRRPC(Cam)FSALEV [HSA ASP-N peptide residues 495-517 …]
30 |  | Per cent adsorbed (per cent adsorbed, printed as fraction) [5]: 0.86 | DETYVPKEFNAETFTHA [HSA ASP-N peptide residues 518-535 …]
31 |  | Per cent adsorbed (per cent adsorbed, printed as fraction) [5]: 0.65 | DSISSKLKEC(Cam)C(Cam)EKPLLEKSHC(Cam)IAEVEN [HSA ASP-N peptide residues 293-319 …]
32 |  | Per cent adsorbed (per cent adsorbed, printed as fraction) [5]: 0.65 | DKLC(Cam)TVATLRETYGEM [HSA ASP-N peptide residues 96-112 …]
33 |  | Per cent adsorbed (per cent adsorbed, printed as fraction) [2]: 1 | YSVVLLLRLAKTYETTLEKC(Cam)C(Cam)AAADPHEC(Cam)YAKVF [HSA ASP-N peptide residues 364-398 …]
34 |  | Per cent adsorbed (per cent adsorbed, printed as fraction) [2]: 1 | IC(Cam)TLSEKERQIKKQTALVELVKHKPKATKEQLKAVM [HSA ASP-N peptide residues 536-572 …]
35 |  | Per cent adsorbed (per cent adsorbed, printed as fraction) [2]: 1 | LAKYIC(Cam)ENQDSISSKLKEC(Cam)C(Cam)EKPLLEKSHC(Cam)IAEVEN [HSA ASP-N peptide residues 283-319 …]
36 |  | Per cent adsorbed (per cent adsorbed, printed as fraction) [2]: 1 | VFLGMFLYEYARRHPDYSVVLLLRLAKTYETTLEKC(Cam)C(Cam)AAA [HSA ASP-N peptide residues 348-388 …]
37 |  | Per cent adsorbed (per cent adsorbed, printed as fraction) [2]: 1 | LGEENFKALVLIAFAQYLQQC(Cam)PFEDHVKLVNEVTEFAKTC(Cam)VA [HSA ASP-N peptide residues 37-79 …]
38 |  | Per cent adsorbed (per cent adsorbed, printed as fraction) [2]: 1 | RVTKC(Cam)C(Cam)TESLVNRRPC(Cam)FSALEVDETYVPKEFNAETFTFHA [HSA ASP-N peptide residues 495-535 …]
39 |  | Per cent adsorbed (per cent adsorbed, printed as fraction) [2]: 0.37 | YLSVVLNQLC(Cam)VLHEKTPVSDRVTKC(Cam)C(Cam)TESLVNRRPC(Cam)FSALEV [HSA ASP-N peptide residues 475-517 …]
40 |  | binding result [6]: binds | B1
41 |  | binding result [7]: binds | B2
42 |  | binding result [8]: binds | VFDEFKPLVEEPQNLIK (Synthetic (CSBio); also called 80) [synthesized albumin peptide 3028 VFDEFKPLVEEPQNLIK]
